From patent publication US20190134153A1, “IMMUNOMODULATORY EFFECT OF INHALED KINASE INHIBITOR PEPTIDES IN LUNG” (MOERAE MATRIX, INC., priority 2017, published 2019) come the findings set out here.

Common to all, as to assay: Kinase Profiling Assay
Holding throughout (format): biochemical
Common to all, as to conditions: 100 μM

Assay [1] deals with AMPKα2(h) (Homo sapiens, UniProt P54646).
Assay [2] has as its target CDK9/cyclin T1(h) (Homo sapiens, UniProt P50750).
For assay [3], the target named is T1, EphB4(h) (Homo sapiens, UniProt P54760).
T1 sequence (P54760 16-987): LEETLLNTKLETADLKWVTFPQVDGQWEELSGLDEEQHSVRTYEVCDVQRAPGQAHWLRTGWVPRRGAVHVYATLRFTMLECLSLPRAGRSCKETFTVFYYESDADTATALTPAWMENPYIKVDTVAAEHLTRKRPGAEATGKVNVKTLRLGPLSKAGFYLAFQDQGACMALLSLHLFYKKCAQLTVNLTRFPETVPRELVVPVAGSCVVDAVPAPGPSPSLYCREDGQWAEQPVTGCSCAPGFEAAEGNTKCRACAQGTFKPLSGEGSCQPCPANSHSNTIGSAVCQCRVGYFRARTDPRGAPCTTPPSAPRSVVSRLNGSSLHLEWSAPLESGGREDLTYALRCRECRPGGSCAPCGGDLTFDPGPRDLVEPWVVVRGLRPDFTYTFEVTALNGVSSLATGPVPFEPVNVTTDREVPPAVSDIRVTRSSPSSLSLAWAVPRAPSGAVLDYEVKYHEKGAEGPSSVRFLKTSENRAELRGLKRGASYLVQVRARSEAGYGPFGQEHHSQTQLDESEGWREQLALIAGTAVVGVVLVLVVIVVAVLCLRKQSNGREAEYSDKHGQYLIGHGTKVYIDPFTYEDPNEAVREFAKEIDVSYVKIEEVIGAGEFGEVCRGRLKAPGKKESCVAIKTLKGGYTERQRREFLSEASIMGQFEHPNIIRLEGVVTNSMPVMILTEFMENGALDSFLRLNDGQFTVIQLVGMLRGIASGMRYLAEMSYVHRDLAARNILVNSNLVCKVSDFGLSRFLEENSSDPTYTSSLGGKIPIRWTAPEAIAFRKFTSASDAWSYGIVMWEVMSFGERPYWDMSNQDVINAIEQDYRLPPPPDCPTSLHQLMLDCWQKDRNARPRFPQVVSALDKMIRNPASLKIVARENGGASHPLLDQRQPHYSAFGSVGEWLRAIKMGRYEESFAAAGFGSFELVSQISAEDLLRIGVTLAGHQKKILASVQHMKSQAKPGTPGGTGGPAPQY

In assay [4] the target is Fyn(h) (Homo sapiens, UniProt P06241).
For assay [5], the target named is IRAK1(h) (Homo sapiens, UniProt P51617).
Assay [6] has as its target MINK(h) (Homo sapiens, UniProt Q8N4C8).
Assay [7] concerns the target p70S6K(h) (Homo sapiens, UniProt P23443).
For assay [8], the target named is Pim-2(h) (Homo sapiens, UniProt Q9P1W9).
Chain of Pim-2(h) (Q9P1W9 whole entry): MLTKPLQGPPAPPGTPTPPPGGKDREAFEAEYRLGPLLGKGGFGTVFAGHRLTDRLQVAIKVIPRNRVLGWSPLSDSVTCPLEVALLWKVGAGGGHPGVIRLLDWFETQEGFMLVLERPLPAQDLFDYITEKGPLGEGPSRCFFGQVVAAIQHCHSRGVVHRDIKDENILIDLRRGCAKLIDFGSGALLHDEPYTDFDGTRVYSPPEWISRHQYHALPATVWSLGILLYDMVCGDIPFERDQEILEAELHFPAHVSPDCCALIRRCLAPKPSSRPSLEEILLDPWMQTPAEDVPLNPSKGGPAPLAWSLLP
Assay [9] deals with T2, PKCμ(h) (Homo sapiens, UniProt Q15139).
T2 sequence (Q15139 1-912): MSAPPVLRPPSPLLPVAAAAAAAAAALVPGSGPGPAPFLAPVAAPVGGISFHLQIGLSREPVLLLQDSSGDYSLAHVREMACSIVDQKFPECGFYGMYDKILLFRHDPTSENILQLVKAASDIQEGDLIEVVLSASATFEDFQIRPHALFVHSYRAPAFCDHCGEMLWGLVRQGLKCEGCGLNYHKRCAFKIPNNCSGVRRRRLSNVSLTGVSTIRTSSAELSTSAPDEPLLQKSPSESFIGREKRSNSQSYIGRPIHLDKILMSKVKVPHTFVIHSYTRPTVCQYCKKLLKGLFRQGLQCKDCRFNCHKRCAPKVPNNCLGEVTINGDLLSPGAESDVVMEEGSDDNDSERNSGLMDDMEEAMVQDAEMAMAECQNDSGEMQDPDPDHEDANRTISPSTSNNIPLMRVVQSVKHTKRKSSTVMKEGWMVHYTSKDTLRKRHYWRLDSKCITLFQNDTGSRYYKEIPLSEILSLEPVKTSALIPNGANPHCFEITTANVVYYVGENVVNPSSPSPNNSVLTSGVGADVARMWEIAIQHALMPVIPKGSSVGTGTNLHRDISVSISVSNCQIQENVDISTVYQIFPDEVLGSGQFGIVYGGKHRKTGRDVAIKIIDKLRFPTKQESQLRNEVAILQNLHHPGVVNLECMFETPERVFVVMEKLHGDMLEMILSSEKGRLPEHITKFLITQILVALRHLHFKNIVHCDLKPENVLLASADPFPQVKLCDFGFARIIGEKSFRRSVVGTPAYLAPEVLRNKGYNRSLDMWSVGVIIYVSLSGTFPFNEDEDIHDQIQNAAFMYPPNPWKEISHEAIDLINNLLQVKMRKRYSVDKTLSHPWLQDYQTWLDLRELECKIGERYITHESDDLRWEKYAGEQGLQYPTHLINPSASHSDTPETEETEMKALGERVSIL

Assay [10] concerns the target Ret(h) (Homo sapiens, UniProt P07949).
In assay [11] the target is Rsk1(h) (Homo sapiens, UniProt Q15418).
Assay [12] addresses SAPK2b(h) (Homo sapiens, UniProt Q15759).
The target in assay [13] is TrkB(h) (Homo sapiens, UniProt Q16620).
Assay [14] deals with ACK1(h) (Homo sapiens, UniProt Q07912).
Chain of ACK1(h) (Q07912 whole entry): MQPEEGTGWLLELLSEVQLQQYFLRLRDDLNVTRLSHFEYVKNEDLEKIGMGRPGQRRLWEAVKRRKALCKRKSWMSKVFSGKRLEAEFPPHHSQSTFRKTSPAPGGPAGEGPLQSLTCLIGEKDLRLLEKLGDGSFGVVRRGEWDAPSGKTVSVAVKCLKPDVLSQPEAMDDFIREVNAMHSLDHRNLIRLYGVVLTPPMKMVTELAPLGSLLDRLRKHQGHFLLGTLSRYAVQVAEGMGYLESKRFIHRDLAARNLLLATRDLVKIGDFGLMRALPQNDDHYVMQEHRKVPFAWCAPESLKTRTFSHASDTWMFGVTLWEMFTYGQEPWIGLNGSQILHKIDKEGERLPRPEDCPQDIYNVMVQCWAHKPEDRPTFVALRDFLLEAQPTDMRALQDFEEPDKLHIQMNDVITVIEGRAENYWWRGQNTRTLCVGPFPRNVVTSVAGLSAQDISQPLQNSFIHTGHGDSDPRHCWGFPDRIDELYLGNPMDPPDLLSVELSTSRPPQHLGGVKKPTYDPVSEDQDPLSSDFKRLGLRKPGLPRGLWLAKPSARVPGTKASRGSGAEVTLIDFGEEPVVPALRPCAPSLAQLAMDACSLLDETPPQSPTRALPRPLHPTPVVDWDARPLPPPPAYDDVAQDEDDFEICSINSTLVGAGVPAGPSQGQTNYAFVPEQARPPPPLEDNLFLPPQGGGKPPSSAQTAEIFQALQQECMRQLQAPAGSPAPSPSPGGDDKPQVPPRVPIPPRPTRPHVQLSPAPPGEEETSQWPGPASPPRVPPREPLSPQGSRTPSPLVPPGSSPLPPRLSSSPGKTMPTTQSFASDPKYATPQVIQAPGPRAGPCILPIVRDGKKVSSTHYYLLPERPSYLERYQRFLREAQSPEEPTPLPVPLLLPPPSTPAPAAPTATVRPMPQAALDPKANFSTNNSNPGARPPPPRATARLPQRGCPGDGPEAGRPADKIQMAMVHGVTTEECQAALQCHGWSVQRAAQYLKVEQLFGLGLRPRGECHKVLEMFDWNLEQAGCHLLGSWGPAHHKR
Assay [15] concerns the target BTK(h) (Homo sapiens, UniProt Q06187).
Assay [16] concerns the target FAK(h) (Homo sapiens, UniProt Q05397).

Chain of SAPK2b(h) (Q15759 whole entry): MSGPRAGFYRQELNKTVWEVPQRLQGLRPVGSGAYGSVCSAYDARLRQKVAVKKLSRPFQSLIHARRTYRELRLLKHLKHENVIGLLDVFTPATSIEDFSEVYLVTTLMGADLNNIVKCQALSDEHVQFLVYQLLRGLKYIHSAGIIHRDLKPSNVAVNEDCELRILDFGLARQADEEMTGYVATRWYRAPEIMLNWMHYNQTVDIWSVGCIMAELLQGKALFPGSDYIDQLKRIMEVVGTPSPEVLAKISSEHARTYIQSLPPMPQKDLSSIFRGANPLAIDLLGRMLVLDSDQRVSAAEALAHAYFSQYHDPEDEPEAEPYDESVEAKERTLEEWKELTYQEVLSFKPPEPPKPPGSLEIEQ
Chain of MINK(h) (Q8N4C8 whole entry): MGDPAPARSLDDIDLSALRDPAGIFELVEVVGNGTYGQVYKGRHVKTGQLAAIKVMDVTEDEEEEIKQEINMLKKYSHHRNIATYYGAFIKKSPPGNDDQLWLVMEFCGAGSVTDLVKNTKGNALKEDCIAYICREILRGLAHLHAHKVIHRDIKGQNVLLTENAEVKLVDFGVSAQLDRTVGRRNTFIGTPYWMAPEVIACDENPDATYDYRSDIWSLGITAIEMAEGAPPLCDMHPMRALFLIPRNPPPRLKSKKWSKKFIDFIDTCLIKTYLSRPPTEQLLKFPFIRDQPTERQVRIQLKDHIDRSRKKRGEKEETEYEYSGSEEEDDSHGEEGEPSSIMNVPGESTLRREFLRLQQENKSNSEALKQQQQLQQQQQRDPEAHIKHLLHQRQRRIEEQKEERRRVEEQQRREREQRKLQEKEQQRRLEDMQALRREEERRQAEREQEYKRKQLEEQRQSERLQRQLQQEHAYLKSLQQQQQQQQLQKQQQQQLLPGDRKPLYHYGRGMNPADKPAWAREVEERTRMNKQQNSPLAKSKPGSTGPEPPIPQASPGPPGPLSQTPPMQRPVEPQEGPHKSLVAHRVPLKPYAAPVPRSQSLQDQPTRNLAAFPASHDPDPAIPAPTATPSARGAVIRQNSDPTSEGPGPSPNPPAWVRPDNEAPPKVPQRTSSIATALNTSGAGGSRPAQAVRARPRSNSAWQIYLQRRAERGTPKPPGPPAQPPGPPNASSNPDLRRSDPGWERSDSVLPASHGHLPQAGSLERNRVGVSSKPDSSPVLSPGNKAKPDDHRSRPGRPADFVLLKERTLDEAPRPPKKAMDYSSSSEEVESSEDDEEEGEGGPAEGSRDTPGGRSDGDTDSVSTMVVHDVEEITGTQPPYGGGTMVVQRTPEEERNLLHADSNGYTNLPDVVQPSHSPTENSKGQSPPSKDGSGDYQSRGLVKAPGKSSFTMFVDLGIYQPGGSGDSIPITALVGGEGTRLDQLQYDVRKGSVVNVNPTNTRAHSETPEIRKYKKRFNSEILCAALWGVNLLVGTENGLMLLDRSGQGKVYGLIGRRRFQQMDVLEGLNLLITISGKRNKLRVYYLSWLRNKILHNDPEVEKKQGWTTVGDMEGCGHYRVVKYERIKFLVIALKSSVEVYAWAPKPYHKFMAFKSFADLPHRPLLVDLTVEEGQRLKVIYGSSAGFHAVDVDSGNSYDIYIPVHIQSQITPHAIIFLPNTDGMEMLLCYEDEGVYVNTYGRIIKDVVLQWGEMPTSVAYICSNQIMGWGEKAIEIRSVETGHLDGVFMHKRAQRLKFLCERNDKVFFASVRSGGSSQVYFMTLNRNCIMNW
Chain of CDK9/cyclin T1(h) (P50750 whole entry): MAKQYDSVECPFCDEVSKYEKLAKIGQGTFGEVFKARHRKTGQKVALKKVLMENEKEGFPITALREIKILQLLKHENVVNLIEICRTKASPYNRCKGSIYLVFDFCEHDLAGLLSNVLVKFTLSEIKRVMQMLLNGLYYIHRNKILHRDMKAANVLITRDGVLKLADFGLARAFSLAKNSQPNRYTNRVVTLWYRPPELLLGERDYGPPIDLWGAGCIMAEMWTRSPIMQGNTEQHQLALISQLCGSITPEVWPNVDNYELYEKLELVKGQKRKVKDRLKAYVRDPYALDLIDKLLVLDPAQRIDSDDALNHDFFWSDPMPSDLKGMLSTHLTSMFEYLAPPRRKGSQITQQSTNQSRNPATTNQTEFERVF
Chain of CDK9/cyclin T1(h) (O60563 whole entry partner): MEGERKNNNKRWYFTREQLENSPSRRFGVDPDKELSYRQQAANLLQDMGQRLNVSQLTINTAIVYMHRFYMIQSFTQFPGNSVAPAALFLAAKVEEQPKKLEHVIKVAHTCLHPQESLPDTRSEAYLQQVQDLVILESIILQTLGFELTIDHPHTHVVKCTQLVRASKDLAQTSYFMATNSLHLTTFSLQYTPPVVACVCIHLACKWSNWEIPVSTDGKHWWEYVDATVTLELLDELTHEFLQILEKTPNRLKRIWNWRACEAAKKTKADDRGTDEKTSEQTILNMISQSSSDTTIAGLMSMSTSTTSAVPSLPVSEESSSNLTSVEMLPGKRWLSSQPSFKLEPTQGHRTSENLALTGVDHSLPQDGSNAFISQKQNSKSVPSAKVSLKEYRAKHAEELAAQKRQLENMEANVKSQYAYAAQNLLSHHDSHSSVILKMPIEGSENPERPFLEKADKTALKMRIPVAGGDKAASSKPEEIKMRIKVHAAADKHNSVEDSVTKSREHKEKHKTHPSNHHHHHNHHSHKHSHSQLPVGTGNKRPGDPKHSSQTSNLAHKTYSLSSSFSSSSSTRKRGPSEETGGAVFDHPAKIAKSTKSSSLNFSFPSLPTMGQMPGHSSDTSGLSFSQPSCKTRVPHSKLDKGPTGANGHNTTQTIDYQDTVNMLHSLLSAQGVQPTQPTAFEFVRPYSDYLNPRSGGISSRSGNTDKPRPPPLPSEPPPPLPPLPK
Chain of p70S6K(h) (P23443 whole entry): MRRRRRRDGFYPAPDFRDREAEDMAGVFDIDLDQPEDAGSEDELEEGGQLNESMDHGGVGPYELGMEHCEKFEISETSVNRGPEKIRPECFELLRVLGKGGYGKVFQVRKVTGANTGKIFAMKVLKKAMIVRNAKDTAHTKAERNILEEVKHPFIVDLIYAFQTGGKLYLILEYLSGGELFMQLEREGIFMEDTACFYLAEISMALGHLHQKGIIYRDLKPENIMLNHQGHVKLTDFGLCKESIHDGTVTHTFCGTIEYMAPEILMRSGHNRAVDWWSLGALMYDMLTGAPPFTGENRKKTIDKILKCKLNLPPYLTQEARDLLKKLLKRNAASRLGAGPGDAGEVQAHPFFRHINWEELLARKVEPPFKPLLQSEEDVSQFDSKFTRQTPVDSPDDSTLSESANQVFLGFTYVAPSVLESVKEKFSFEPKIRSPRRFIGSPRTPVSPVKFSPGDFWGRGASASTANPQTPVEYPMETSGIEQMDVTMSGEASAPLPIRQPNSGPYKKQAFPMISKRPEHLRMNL

FAKLAARLYRKALARQLGVAA [MMI-0300]: the “% activity” value in [1] turned out to be 54%; in assay [2], 91%; in assay [3], 44%; in assay [4], 74%; in assay [5], 95%; in assay [6], 48%. Besides, the “% activity” value is reported as 35% in assay [7]; 76% in assay [8]; 22% in assay [9]; 140% in assay [10]; 46% in assay [11]; 81% in assay [12]. In addition, the “% activity” value in assay [13] turned out to be 5%.
Turning to YARAAARQARAKALNRQLGVA [MMI-0200], the “% activity” value in assay [14] is recorded as 97%; in [1], 88%; in [15], 100%; in assay [3], 131%; in assay [16], 110%; in assay [4], 75%. For the same sequence, the “% activity” value in [5] is recorded as 101%; in [7], 84%; in assay [8], 74%; in [9], 73%; in [10] it was 96%; in assay [12], 95%. In addition, the “% activity” value in [13] came to 7%.
On to KAFAKLAARLYRKALARQLGVAA [MMI-0400], for which the “% activity” value in assay [14] came to 95%; in assay [1], 58%; in assay [15] it was 94%; in assay [2] it was 235%; in assay [3], 28%; in [16], 96%. Besides, the “% activity” value amounted to 54% in [4]; 93% in assay [5]; 52% in assay [6]; 33% in assay [7]; 92% in assay [8]; 14% in [9]. Besides, the “% activity” value in [10] came out at 145%; in [11] it was 54%; in assay [12] it was 82%; in assay [13] it was 8%.
With HRRIKAWLKKIKALARQLGVAA [MMI-0500], the “% activity” value worked out at 64% in [14]; 9% in assay [1]; 18% in assay [15]; 6% in assay [2]; 38% in assay [3]; 94% in [16]. In addition, the “% activity” value was determined as 83% in assay [4]; 5% in [5]; 5% in [6]; 3% in assay [7]; 46% in assay [8]; 10% in assay [9]. Moreover, the “% activity” value in assay [10] worked out at 174%; in assay [11], 34%; in assay [12], 42%; in [13], 12%.
